Patent publication US20250011363A1, “OPTIMIZED SHORTENED PEPTIDE THAT BINDS TO ACETYLCHOLINE RECEPTOR, AND USE THEREOF” (SKINMED CO., LTD., priority 2021, published 2025)

These substances were tested against acetylcholine receptor (Homo sapiens, UniProt P02708) (assay: SPR binding affinity (RU) of optimized 5mer/6mer/7mer peptides, Examples 6-7). Conditions: SPR, peptides tested at 10 μM; 5mer Top sequence.
acetylcholine receptor, sequence (P02708 21-457): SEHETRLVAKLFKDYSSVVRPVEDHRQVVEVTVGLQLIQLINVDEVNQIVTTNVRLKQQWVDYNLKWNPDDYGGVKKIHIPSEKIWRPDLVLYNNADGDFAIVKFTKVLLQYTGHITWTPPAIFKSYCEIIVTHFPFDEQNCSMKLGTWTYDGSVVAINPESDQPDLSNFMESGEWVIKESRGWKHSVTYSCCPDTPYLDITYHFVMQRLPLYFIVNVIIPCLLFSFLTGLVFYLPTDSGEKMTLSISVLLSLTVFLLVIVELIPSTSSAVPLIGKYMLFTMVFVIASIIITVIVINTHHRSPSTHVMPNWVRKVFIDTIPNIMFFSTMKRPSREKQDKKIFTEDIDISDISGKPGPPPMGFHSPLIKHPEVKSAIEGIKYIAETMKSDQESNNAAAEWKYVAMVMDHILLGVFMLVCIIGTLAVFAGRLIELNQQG
Method: Based on the frequencies of occurrence of the top 7 amino acids from Table 7 in Example 5, 600 peptides comprising these amino acids (top combinations) and those comprising the 13 less frequently occurring amino acids (bottom combinations) were synthesized for each series of 5mer, 6mer-1, and 6mer-2. The binding affinity of each sequence for the acetylcholine receptor was measured using Surface Plasmon Resonance (SPR) analysis method. The peptides were tested at a concentration of 10 μM. Additionally, the average binding affinities of the top and bottom combinations in each series are depicted in FIGS. 5-7.
Representative peptides identified in Example 6, two in each library, including 5mers (73, 311) and 6mers-1 (43, 210) and 6mers-2 (136, 233), were compared with the pre-optimized 6mer, 5mer-ND, and Synake.
5mer-1 (RVQCK) gave a Binding affinity of 54 Ru.
Work on 5mer-2 (KRISR) yielded a Binding affinity of 80 Ru.
With 5mer-3 (KRVLK) the Binding affinity was 66 Ru.
Work on 5mer-4 (KRFLR) yielded a Binding affinity of 58 Ru.
For 5mer-5 (KLFLR), the Binding affinity was 54 Ru.
5mer-6 (RWQQK) gave a Binding affinity of 61 Ru.
Work on 5mer-7 (RQLTK) yielded a Binding affinity of 54 Ru.
5mer-8 (RQRSR) gave a Binding affinity of 51 Ru.
5mer-9 (RGVQR) showed a Binding affinity of 77 Ru.
5mer-10 (RVQRR) was tested, and the Binding affinity was 55 Ru.
5mer-11 (KQRLR) showed a Binding affinity of 84 Ru.
Substance 5mer-12 (RVFLR) has a Binding affinity of 70 Ru.
Work on 5mer-13 (RLISK) yielded a Binding affinity of 52 Ru.
In the case of 5mer-14 (RWLCK), the Binding affinity is reported as 63 Ru.
5mer-15 (KGVCK) was tested, and the Binding affinity was 75 Ru.
5mer-16 (KLYTK) was tested, and the Binding affinity was 66 Ru.
For 5mer-17 (KRIYK), the Binding affinity was 70 Ru.
In the case of 5mer-18 (RQLRR), the Binding affinity is reported as 69 Ru.
For 5mer-19 (KRFQR), the Binding affinity was 72 Ru.
In the case of 5mer-20 (RGRYK), the Binding affinity is reported as 78 Ru.
5mer-21 (KWFTR) gave a Binding affinity of 63 Ru.
In the case of 5mer-22 (RQQLK), the Binding affinity is reported as 66 Ru.
5mer-23 (KWLYK) showed a Binding affinity of 86 Ru.
With 5mer-24 (KSQCR) the Binding affinity was 67 Ru.
5mer-25 (KVVYK) showed a Binding affinity of 60 Ru.
For 5mer-26 (RQQQR), the Binding affinity was 65 Ru.
5mer-27 (KGYLR) showed a Binding affinity of 67 Ru.
Work on 5mer-28 (RLLSR) yielded a Binding affinity of 74 Ru.
In the case of 5mer-29 (KGFCR), the Binding affinity is reported as 63 Ru.
Substance 5mer-30 (KSQLR) has a Binding affinity of 70 Ru.
5mer-31 (RRLQR) showed a Binding affinity of 65 Ru.
In the case of 5mer-32 (RQLSR), the Binding affinity is reported as 75 Ru.
5mer-33 (RRISK) showed a Binding affinity of 59 Ru.
For 5mer-34 (KRIRK), the Binding affinity was 82 Ru.
Work on 5mer-35 (RWQYK) yielded a Binding affinity of 80 Ru.
In the case of 5mer-36 (RRLQK), the Binding affinity is reported as 60 Ru.
5mer-37 (RRLSR) was tested, and the Binding affinity was 72 Ru.
Substance 5mer-38 (RGYCK) has a Binding affinity of 53 Ru.
5mer-39 (KQVSR) showed a Binding affinity of 67 Ru.
In the case of 5mer-40 (KSVCR), the Binding affinity is reported as 67 Ru.
5mer-41 (KVISK) showed a Binding affinity of 82 Ru.
In the case of 5mer-42 (RQRLR), the Binding affinity is reported as 83 Ru.
In the case of 5mer-43 (KSFYR), the Binding affinity is reported as 53 Ru.
5mer-44 (RSRTR) gave a Binding affinity of 59 Ru.
5mer-45 (RVFQR) showed a Binding affinity of 86 Ru.
Work on 5mer-46 (KRQCK) yielded a Binding affinity of 76 Ru.
5mer-47 (KGVRR) gave a Binding affinity of 70 Ru.
5mer-48 (RVYLR) showed a Binding affinity of 62 Ru.
For 5mer-49 (KWRTR), the Binding affinity was 62 Ru.
Substance 5mer-50 (KLLCR) has a Binding affinity of 63 Ru.
Substance 5mer-51 (RSLQR) has a Binding affinity of 70 Ru.
For 5mer-52 (RQQYK), the Binding affinity was 50 Ru.
5mer-53 (RLVTR) gave a Binding affinity of 50 Ru.
Substance 5mer-54 (KWLQR) has a Binding affinity of 66 Ru.
In the case of 5mer-55 (RRFSR), the Binding affinity is reported as 58 Ru.
Substance 5mer-56 (KRFCK) has a Binding affinity of 59 Ru.
For 5mer-57 (KQLYR), the Binding affinity was 73 Ru.
Substance 5mer-58 (KWVSK) has a Binding affinity of 75 Ru.
Work on 5mer-59 (KLQYR) yielded a Binding affinity of 68 Ru.
5mer-60 (RLFTK) gave a Binding affinity of 86 Ru.
With 5mer-61 (RLILK) the Binding affinity was 66 Ru.
5mer-62 (KQLTK) was tested, and the Binding affinity was 70 Ru.
5mer-63 (RLLRK) gave a Binding affinity of 86 Ru.
With 5mer-64 (KVVTR) the Binding affinity was 76 Ru.
For 5mer-65 (RQIRR), the Binding affinity was 67 Ru.
5mer-66 (KRLLR) showed a Binding affinity of 80 Ru.
For 5mer-67 (RQLYR), the Binding affinity was 86 Ru.
Substance 5mer-68 (RGFYK) has a Binding affinity of 82 Ru.
For 5mer-69 (RSRSR), the Binding affinity was 50 Ru.
5mer-70 (RLLQR) was tested, and the Binding affinity was 69 Ru.
5mer-71 (KLQSK) showed a Binding affinity of 68 Ru.
For 5mer-72 (KLYRR), the Binding affinity was 50 Ru.
In the case of 5mer-74 (RQITK), the Binding affinity is reported as 87 Ru.
Substance 5mer-75 (KVQTK) has a Binding affinity of 63 Ru.
Substance 5mer-76 (RGYRR) has a Binding affinity of 80 Ru.
With 5mer-77 (KWRQK) the Binding affinity was 74 Ru.
Substance 5mer-78 (KVICK) has a Binding affinity of 79 Ru.
Substance 5mer-79 (RWFLR) has a Binding affinity of 82 Ru.
5mer-80 (KSRTR) gave a Binding affinity of 83 Ru.
Work on 5mer-81 (RGIYR) yielded a Binding affinity of 79 Ru.
5mer-82 (RQRYK) gave a Binding affinity of 84 Ru.
Substance 5mer-83 (KGFSR) has a Binding affinity of 64 Ru.
5mer-84 (RVVRR) showed a Binding affinity of 67 Ru.
5mer-85 (KGVLK) showed a Binding affinity of 74 Ru.
Work on 5mer-86 (RRLCK) yielded a Binding affinity of 55 Ru.
5mer-87 (RQITR) showed a Binding affinity of 55 Ru.
In the case of 5mer-88 (RRVQK), the Binding affinity is reported as 73 Ru.
In the case of 5mer-89 (KRITK), the Binding affinity is reported as 77 Ru.
In the case of 5mer-90 (RWYTK), the Binding affinity is reported as 86 Ru.
Work on 5mer-91 (RQIQK) yielded a Binding affinity of 55 Ru.
5mer-92 (RVRLK) gave a Binding affinity of 62 Ru.
For 5mer-93 (KWVYR), the Binding affinity was 79 Ru.
In the case of 5mer-94 (RWFQR), the Binding affinity is reported as 50 Ru.
Work on 5mer-95 (RGRRK) yielded a Binding affinity of 68 Ru.
5mer-96 (RVLYR) gave a Binding affinity of 55 Ru.
5mer-97 (KRQLR) was tested, and the Binding affinity was 52 Ru.
In the case of 5mer-98 (KWYCK), the Binding affinity is reported as 68 Ru.
With 5mer-99 (RWICK) the Binding affinity was 58 Ru.
For 5mer-100 (KVIRK), the Binding affinity was 80 Ru.
5mer-101 (RQQYR) was tested, and the Binding affinity was 55 Ru.
For 5mer-102 (RGFSK), the Binding affinity was 82 Ru.
With 5mer-103 (RWFLK) the Binding affinity was 62 Ru.
With 5mer-104 (RVVLK) the Binding affinity was 74 Ru.
For 5mer-105 (RGQQR), the Binding affinity was 50 Ru.
5mer-106 (KLLQR) showed a Binding affinity of 78 Ru.
For 5mer-107 (RWVSR), the Binding affinity was 56 Ru.
Work on 5mer-108 (KWQLK) yielded a Binding affinity of 77 Ru.
5mer-109 (RLQCR) gave a Binding affinity of 68 Ru.
5mer-110 (KRRLK) was tested, and the Binding affinity was 76 Ru.
For 5mer-111 (KSVLK), the Binding affinity was 85 Ru.
5mer-112 (KRYYR) gave a Binding affinity of 58 Ru.
5mer-113 (KRLRK) showed a Binding affinity of 79 Ru.
For 5mer-114 (KRQRR), the Binding affinity was 82 Ru.
With 5mer-115 (RWLLR) the Binding affinity was 75 Ru.
5mer-116 (RWRSK) showed a Binding affinity of 64 Ru.
5mer-117 (RSVYK) was tested, and the Binding affinity was 69 Ru.
Work on 5mer-118 (RVICK) yielded a Binding affinity of 87 Ru.
Substance 5mer-119 (KQIRK) has a Binding affinity of 60 Ru.
5mer-120 (RQILK) showed a Binding affinity of 68 Ru.
In the case of 5mer-121 (RQVTR), the Binding affinity is reported as 73 Ru.
Work on 5mer-122 (RSYQK) yielded a Binding affinity of 78 Ru.
5mer-123 (KWIRR) showed a Binding affinity of 53 Ru.
In the case of 5mer-124 (KGFSK), the Binding affinity is reported as 58 Ru.
For 5mer-125 (RVRQK), the Binding affinity was 67 Ru.
For 5mer-126 (RGVTK), the Binding affinity was 61 Ru.
In the case of 5mer-127 (RWVTK), the Binding affinity is reported as 86 Ru.
5mer-128 (RGVCR) was tested, and the Binding affinity was 56 Ru.
Substance 5mer-129 (KSLLK) has a Binding affinity of 63 Ru.
5mer-130 (RRFRK) gave a Binding affinity of 80 Ru.
For 5mer-131 (KLRRR), the Binding affinity was 72 Ru.
For 5mer-132 (RVRCK), the Binding affinity was 83 Ru.
5mer-133 (KGQRK) gave a Binding affinity of 84 Ru.
5mer-134 (RQFSK) gave a Binding affinity of 61 Ru.
For 5mer-135 (RRLLR), the Binding affinity was 64 Ru.
With 5mer-136 (RRIYK) the Binding affinity was 75 Ru.
In the case of 5mer-137 (KGVSK), the Binding affinity is reported as 77 Ru.
For 5mer-138 (RQRCR), the Binding affinity was 71 Ru.
In the case of 5mer-139 (RLQYK), the Binding affinity is reported as 73 Ru.
5mer-140 (KWRLR) was tested, and the Binding affinity was 69 Ru.
5mer-141 (RWQQR) gave a Binding affinity of 50 Ru.
For 5mer-142 (RQYSR), the Binding affinity was 52 Ru.
In the case of 5mer-143 (KGQQR), the Binding affinity is reported as 64 Ru.
5mer-144 (KRFSK) showed a Binding affinity of 58 Ru.
5mer-145 (RSFSK) gave a Binding affinity of 62 Ru.
For 5mer-146 (RWFTK), the Binding affinity was 52 Ru.
With 5mer-147 (RRYQK) the Binding affinity was 66 Ru.
Work on 5mer-148 (RSQTK) yielded a Binding affinity of 50 Ru.
With 5mer-149 (KQFLR) the Binding affinity was 80 Ru.
In the case of 5mer-150 (RVRTR), the Binding affinity is reported as 64 Ru.
5mer-151 (RVFTK) showed a Binding affinity of 66 Ru.
5mer-152 (RRRRR) was tested, and the Binding affinity was 56 Ru.
5mer-153 (RSIQK) was tested, and the Binding affinity was 72 Ru.
5mer-154 (RSITR) gave a Binding affinity of 54 Ru.
5mer-155 (KRYLR) showed a Binding affinity of 57 Ru.
5mer-156 (KGLRK) showed a Binding affinity of 85 Ru.
Substance 5mer-157 (KGRCR) has a Binding affinity of 78 Ru.
5mer-158 (RWQTK) gave a Binding affinity of 65 Ru.
For 5mer-159 (RGQRR), the Binding affinity was 73 Ru.
Substance 5mer-160 (RSIRR) has a Binding affinity of 53 Ru.
Work on 5mer-161 (KWVTK) yielded a Binding affinity of 52 Ru.
5mer-162 (RGYQR) was tested, and the Binding affinity was 51 Ru.
5mer-163 (KSLCK) gave a Binding affinity of 61 Ru.
Work on 5mer-164 (KSICK) yielded a Binding affinity of 54 Ru.
5mer-165 (KWRSK) was tested, and the Binding affinity was 56 Ru.
5mer-166 (KSFQR) gave a Binding affinity of 55 Ru.
5mer-167 (KQFRK) was tested, and the Binding affinity was 64 Ru.
For 5mer-168 (KLFSK), the Binding affinity was 84 Ru.
In the case of 5mer-169 (RWYRK), the Binding affinity is reported as 61 Ru.
5mer-170 (RLICK) was tested, and the Binding affinity was 62 Ru.
In the case of 5mer-171 (KSIQR), the Binding affinity is reported as 55 Ru.
5mer-172 (RSRRR) showed a Binding affinity of 82 Ru.
